What was measured:
IPT = biological target: T1, IPT (UniProt P08581 563-932); assay: ELISA, IPT in solid phase, MYC-tagged ligand in liquid phase, anti-MYC detection
T1 construct: range 563-932; also called IPT FLAG.his; soluble IPT
Description: (§1) Factor purification was performed by immobilized-metal affinity chromatography as previously described in Michieli P. et al. (2002) Nat Biotechnol. 20(5), 488-495. Conversion of pro-HGF into active HGF was performed by incubating purified pro-HGF (maximal concentration 100 ng/μl) with 2-10% FBS (Sigma, St. Louis, Mo.) at 37° C. for 24 hours. Factor conversion was analyzed by Western blotting using anti-HGF antibodies (R&D Systems, Minneapolis, Minn.). Uncleavable HGF subjected to the same incubation with FBS was used as pro-HGF in all assays that compared active HGF with unprocessed HGF. Binding of engineered ligands to soluble receptors was measured by ELISA using FLAG-tagged soluble receptors in solid phase and MYC-tagged engineered ligands in liquid phase. […] Binding data were analyzed and fit using Prism software (Graph Pad Software, San Diego, Calif.).
(§2) To determine the affinity of each Met module for pro-HGF, HGF-α, HGF NK1 and HGF-β and to compare it with that for active HGF, engineered receptors were immobilized in solid phase and exposed to increasing concentrations of MYC-tagged ligands. […] Non-specific binding was determined using the kringle-containing protein angiostatin (AS) also tagged with a MYC epitope—in liquid phase. […] Binding of HGF-β to decoy Met (or to any other Met domain) was too low to be detected in this kind of assay. […]

Sema-PSI = biological target: T2, Sema-PSI (UniProt P08581 25-562); assay: ELISA, receptor in solid phase, MYC-tagged ligand in liquid phase, anti-MYC detection
T2 construct: range 25-562; also called Sema-PSI FLAG.his; SP
Description: as §1, with “All engineered receptors and factors were collected from the conditioned medium of lentiviral vector-transduced […] human melanoma cells in the absence of serum. Factor purification” for “Factor purification”, “Minneapolis, Minn.). […] Binding of” for “Minneapolis, Minn.). Uncleavable HGF subjected to the same incubation with FBS was used as pro-HGF in all assays that compared active HGF with unprocessed HGF. Binding of”
as §2

Decoy Met = biological target: T3, Decoy Met (UniProt P08581 25-932); assay: ELISA, Decoy Met in solid phase, MYC-tagged ligand in liquid phase, anti-MYC detection
T3 construct: range 25-932; Soluble FLAG- and His-tagged receptor, purified from conditioned medium of transduced cells; also called decoy met FLAG.his; DM
Description: as §1, §2

B1: HGF NK1 (ligand)
chain: QRKRRNTIHEFKKSAKTTLIKIDPALKIKTKKVNTADQCANRCTRNKGLPFTCKAFVFDKARKQCLWFPFNSMSSGVKKEFGHEFDLYENKDYIRNCIIGKGRSYKGTVSITKSGIKCQPWSSMIPHEHSFLPSSYRGKDLQENYCRNPRGEEGGPWCFTSNPEVRYEVCDIPQEQKLISEEDLNHHHHHHH
notes: range 32-205; also called HGF-NK1 MYC his; monomeric NK1
B1 was tested, and the “fold less tightly than active HGF” value (IPT) was 10 fold, the binding result (Sema-PSI) was “no binding” and the “fold reduced affinity compared to active HGF” value (Decoy Met) was 10 fold.

B2: HGF-α (ligand)
chain: QRKRRNTIHEFKKSAKTTLIKIDPALKIKTKKVNTADQCANRCTRNKGLPFTCKAFVFDKARKQCLWFPFNSMSSGVKKEFGHEFDLYENKDYIRNCIIGKGRSYKGTVSITKSGIKCQPWSSMIPHEHSFLPSSYRGKDLQENYCRNPRGEEGGPWCFTSNPEVRYEVCDIPQCSEVECMTCNGESYRGLMDHTESGKICQRWDHQTPHRHKFLPERYPDKGFDDNYCRNPDGQPRPWCYTLDPHTRWEYCAIKTCADNTMNDTDVPLETTECIQGQGEGYRGTVNTIWNGIPCQRWDSQYPHEHDMTPENFKCKDLRENYCRNPDGSESPWCFTTDPNIRVGYCSQIPNCDMSHGQDCYRGNGKNYMGNLSQTRSGLTCSMWDKNMEDLHRHIFWEPDASKLNENYCRNPDDDAHGPWCYTGNPLIPWDYCPISRCEGDTEQKLISEEDLNHHHHHHH
notes: range 32-473; also called HGF α-chain; HGF-α MYC his
In the case of B2, the binding result (Sema-PSI) is reported as “no binding” and the “fold reduced affinity compared to active HGF” value (Decoy Met) is reported as 4 fold.

Source: patent US20090298079A1 (METHERESIS TRANSLATIONAL RESEARCH, published 2009)
